# Test results published in patent publication US20030185828.
# B1: MDTS8 full-length protein (MDTS8Full) with FLAG tag added to the C-terminus, expressed from plasmid pCEPdE2-MDTS8Full-FLAG (protein)
# chain: MECALLLACAFPAAGSGPPRGLAGLGRVAKALQLCCLCCASVAAALASDSSSGASGLNDDYVFVTPVEVDSAGSYISHDILHNGRKKRSAQNARSSLHYRFSAFGQELHLELKPSAILSSHFIVQVLGKDGASETQKPEVQQCFYQGFIRNDSSSSVAVSTCAGLSGLIRTRKNEFLISPLPQLLAQEHNYSSPAGHHPHVLYKRTAEEKIQRYRGYPGSGRNYPGYSPSHIPHASQSRETEYHHRRLQKQHFCGRRKKYAPKPPTEDTYLRFDEYGSSGRPRRSAGKSQKGLNVETLVVADKKMVEKHGKGNVTTYILTVMNMVSGLFKDGTIGSDINVVVVSLILLEQEPGGLLINHHADQSLNSFCQWQSALIGKNGKRHDHAILLTGFDICSWKNEPCDTLGFAPISGMCSKYRSCTINEDTGLGLAFTIAHESGHNFGMIHDGEGNPCRKAEGNIMSPTLTGNNGVFSWSSCSRQYLKKFLSTPQAGCLVDEPKQAGQYKYPDKLPGQIYDADTQCKWQFGAKAKLCSLGFVKDICKSLWCHRVGHRCETKFMPAAEGTVCGLSMWCRQGQCVKFGELGPRPIHGQWSAWSKWSECSRTCGGGVKFQERHCNNPKPQYGGLFCPGSSRIYQLCNINPCNENSLDFRAQQCAEYNSKPFRGWFYQWKPYTKVEEEDRCKLYCKAENFEFFFAMSGKVKDGTPCSPNKNDVCIDGVCELVGCDHELGSKAVSDACGVCKGDNSTCKFYKGLYLNQHKANEYYPVVIIPAGARSIEIQELQVSSSYLAVRSLSQKYYLTGGWSIDWPGEFPFAGTTFEYQRSFNRPERLYAPGPTNETLVFEILMQGKNPGIAWKYALPKVMNGTPPATKRPAYTWSIVQSECSVSCGGGYINVKAICLRDQNTQVNSSFCSAKTKPVTEPKICNAFSCPAYWMPGEWSTCSKACAGGQQSRKIQCVQKKPFQKEEAVLHSLCPVSTPTQVQACNSHACPPQWSLGPWSQCSKTCGRGVRKRELLCKGSAAETLPESQCTSLPRPELQEGCVLGRCPKNSRLQWVASSWSECSATCGLGVRKREMKCSEKGFQGKLITFPERRCRNIKKPNLDLEETCNRRACPAHPVYNMVAGWYSLPWQQCTVTCGGGVQTRSVHCVQQGRPSSSCLLHQKPPVLRACNTNFCPAPEKREDPSCVDFFNWCHLVPQHGVCNHKFYGKQCCKSCTRKIAAADYKDDDDK
# Biological target: recombinant aggrecan G1G2 (globular domain 1-globular domain 2 of human aggrecan with N-terminal FLAG tag and C-terminal His tag), P16112
# Sequence (P16112 20-675): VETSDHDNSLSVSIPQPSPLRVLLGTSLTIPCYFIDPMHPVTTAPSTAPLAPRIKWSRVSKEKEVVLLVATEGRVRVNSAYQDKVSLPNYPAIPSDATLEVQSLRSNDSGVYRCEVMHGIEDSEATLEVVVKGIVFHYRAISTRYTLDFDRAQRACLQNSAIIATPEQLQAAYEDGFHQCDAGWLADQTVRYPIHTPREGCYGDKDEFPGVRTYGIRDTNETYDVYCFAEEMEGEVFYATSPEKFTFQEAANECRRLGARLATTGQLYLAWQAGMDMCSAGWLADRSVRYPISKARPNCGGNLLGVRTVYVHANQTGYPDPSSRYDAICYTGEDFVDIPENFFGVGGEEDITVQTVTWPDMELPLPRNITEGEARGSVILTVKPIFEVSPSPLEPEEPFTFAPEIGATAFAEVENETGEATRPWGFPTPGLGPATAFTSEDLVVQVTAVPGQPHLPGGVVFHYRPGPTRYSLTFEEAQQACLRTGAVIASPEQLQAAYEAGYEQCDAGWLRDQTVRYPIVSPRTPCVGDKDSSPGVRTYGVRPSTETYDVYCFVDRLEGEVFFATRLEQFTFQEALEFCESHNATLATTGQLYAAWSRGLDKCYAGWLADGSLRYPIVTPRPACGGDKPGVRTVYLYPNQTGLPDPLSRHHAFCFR
protein,measurement,value
B1,degradation product reactive with the anti-aggrecanase neoepitope antibody (western blotting after overnight reaction at 37 C),such degradation products were detected when the culture supernatant of the HEK293-EBNA cell transfected with the plasmid pCEPdE2-MDTS8Full-FLAG was reacted with the recombinant G1G2
